Test results: the nanobody polyreactivity screen of Harvey et al. (2022)

Assay: yeast display, Sf9 membrane polyspecificity reagent, FACS + sequencing; frameworks hold sequencing errors
Summary of the method: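 Galactose induction of a Saccharomyces cerevisiae BJ5465 synthetic nanobody display library ran 36–48 hours. The cells were then stained for 1 hour at 4 °C with 10% biotinylated, detergent-solubilized Sf9 membrane reagent, pulled down on streptavidin microbeads and FACS-sorted into low and high (top ~1%) gates on expression and reagent-binding fluorescence. Labels for polyreactivity follow the gate of origin.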

Sequence: QVQLVESGGGLVQAGGSLRLSCAASGRIFPSYAMGWYRHAPGKERELVAAITSSDSTYNADSVKGRFTISRDNAKNTVYFQMNSLKPEDTAVYYCAAAYSYSGWWWFDYWGQGTQVTVSS
- polyreactivity (PSR sort gate): high polyreactivity

Sequence: QVQLVESGGGLVQAGGSLRLSCAASGLTFSGNVMGCYIQAPGKERELVAAIDRSGGSTYYADSVKGRFTISRDNAKNTVYLQMNSLKPEDTAVYYCAVSSYPNHSRSWDDYWGQGTQVTVSS
- polyreactivity (PSR sort gate): low polyreactivity

Sequence: QVQLQEGGGGLVQAGGSLRLSCAASGYISYGDVMGWYRQAPGEERELVASIGLDATTNYADSVKGRFTISRDNAKITVYLQMNSLKPEATAVYYCAADVGSGVMCGYWGQGTQMTVSS
- polyreactivity (PSR sort gate): high polyreactivity

Sequence: QVHLVESGGGLVQAGGSLRLSCAASGSIFAVNAMGWYRQAPGKERELVAVITSRGGSTYYADSVKGRFTISRDNAKNTVYLQMNSLKPEDTAVYYCAARPGAAGYKYYYWGQGTQVTVSS
- polyreactivity (PSR sort gate): high polyreactivity

Sequence: QVQLVESGLGLVQAGGSLRLSCASSGSICSTYAMGLYRQAPGKERELVAAITTSGGRTYYADSVKGRFTISRDNAKNSVYLQMNSLKPEDTAVYFCNAVRGGRYGLDYWGQGTQVTVSS
- polyreactivity (PSR sort gate): high polyreactivity

Sequence: QVQHVESGGGIVQAGGSLRLSCAASGSIFDRNAMGWYRPAPGQERELVASISWDGGNTYYADSVKGRFTISRDNSTNTVYLQMNSLKPEDTAVYYCAVDLYIWYDGYEYYYWGQGTQVTVSS
- polyreactivity (PSR sort gate): high polyreactivity

Sequence: QVQLVESGGGLVQAGGSLRLSCAASGRIFGKYTMGWYRQAPGKERELVAAISWGGGSTYYADSVKGRFTISRDNAKNTVYLQMNSLKPEDTAVYYCAADYYYYHTQEYDYWGQGTQVTVSS
- polyreactivity (PSR sort gate): high polyreactivity

Sequence: QVKLVESCGGLVQAGGSLRLSCAASGFIFRNYAMGWYRQARGKERELVAAIDYSVGSTNYADSVKWRFTISRDNAKNTVYLQMNSLKPEDTAVYYCNAEYTWHRGYDYFGQGTQVTVSS
- polyreactivity (PSR sort gate): low polyreactivity

Sequence: QVQLVESGGGLVQAGGSLRLSCAASGSIFAYYAMGWYRQAPGKERELVAAITSGDSTYYADSVKGRFTISRDNAKNTVYLQMNSLKPEDTAVYYCAADHIWFYFYLYDYWGQGTQVTVSS
- polyreactivity (PSR sort gate): high polyreactivity

Sequence: QVQLVESGGGFVQAGGSLRLSCAASGRIIGYNAMAWYRQAPGKDRELVAAITTSGGSTYYADSVKGRFTISRDNAKNTVYLQMNSLKPEDTAFYYCARDSLQVFYAYASDDFWGQGTQVTVSS
- polyreactivity (PSR sort gate): low polyreactivity

Sequence: QVQLVESGGGLVQAGGSLRLSCAASGSPFRGNAMGWYRQAPGKEREFVAAITVSCGSTYYADSVKGRFTISRDNAKNNVYLQMKSLNPEDTAVYYCAARYLRYSSKTIQNEDYWGQGTQVTVSS
- polyreactivity (PSR sort gate): high polyreactivity

Sequence: QVQLVESGGCLDQAGGSLRLSCAASGRIFDHYAMGWYRQAPGKEMELVAAITRSGGITYYADSVKGRFTISRDNAKNTVYLQMNSLKPEDTAVYYCAALSYRYTDKFDYWGQGTQVTVSS
- polyreactivity (PSR sort gate): low polyreactivity

Sequence: QLQLVESGGGLVQAGGSLRLSCAASGLTFYHYAMGWYRQAPGKERELVAAISTSGGSTYYADSVKGRFTVSRDNAKNTVYLQMNSLKPEDTAVYYCATERTYRYDFWGQGTQVTVSS
- polyreactivity (PSR sort gate): high polyreactivity

Sequence: QVQLVDTGGGLGQAGGSLRLSCAASGSTFFPYAMGWYRQAPGKEREFVAGISSDGGTSYADSVKGRFTISRDNAKNTVYLQMNSLKPEDTAVYYCAALQADRDRYPEFDLMDYWGQGTQVSVSS
- polyreactivity (PSR sort gate): low polyreactivity

Sequence: QVQLVESGGGLVQAGGSLRLSCAASGSTFSKYFMGWYSQAPGKERELVAAISGGDRTYYADSVKGRFTISRDNAKNTVYLQMNSLKTEVTAVYDCAAEVLKTRWSYDYWGQGTQVTVSS
- polyreactivity (PSR sort gate): high polyreactivity

Sequence: QVQIVESGGGLVQAGGSLRLSCAASGRTFYSYAMGWYRQAPGKERELVAAIRWTGVRTYYADSVKGRFTISRDNAKNTVYLEINSLKPEDTAVYYCAVFRSSGKGYRGPRDYWGQGTQVTVSS
- polyreactivity (PSR sort gate): high polyreactivity

Sequence: QVQLVESGGGLVQAGGSLRLSCAASGRILGYNAMGWYRQAPGKERELVAAITSGGSTYYADSVKGRFTISRDNAKNTVYLQMNRLKPEDTAVYYCAKRAFSYVGGQQDRNENYYYWGQGTQVTVSS
- polyreactivity (PSR sort gate): high polyreactivity

Sequence: QVQLVESGGGLVQAGGSLRLSCAASGRTFTGYNMGWYRQEPGKEREFVAAISSNGGRTYYADSVKGRFTISRDNAKNTVYLQMNSLKPEDTAVYYCAAPFTFWGQGTQVTVSS
- polyreactivity (PSR sort gate): high polyreactivity

Sequence: QDQLVESGGGLVQAGGSLRLSCAASGRIFYYNAIGWYRQAPGKEMELVATITRAGGTYYADSVKGRFTISRDNAKNTVYLQMNSLKPEDTAVYYCAKRHPIVDDYKGDYWGQGTQVTVSS
- polyreactivity (PSR sort gate): low polyreactivity

Sequence: QVQLVESGGGLVQAGGSLRLSCAASGSTFYYYAMGWSRPAPGKERELVAAISTRGGSTYYADSVKGRFTISRDNAKNTVYLQMNSLKPEDTAVYYCAKKYGYFGLHGYWGQGTQVTVSS
- polyreactivity (PSR sort gate): high polyreactivity

Sequence: QVQLVESGGGLVQAGGSLRLSCAASGRIFPGYAMGWYRQAPGKERELVAGISNDASTNYADSVKGRFTISRDNAKNTVYLQMNSLKPEDTAVYYCAAEISYLSVPRYDDWGQGTQVTVSS
- polyreactivity (PSR sort gate): low polyreactivity

Sequence: QVQLVESGGGLVQAGGSLRLSCAAYVRIIYDYAKGWYRQAPGKERELVAAISKGGGSTYYADSVKGRFTISRDNAKNTVYLQMNSLNPEDTAVYYCAASTSHTTDTRYDYLGQGTQVTVSS
- polyreactivity (PSR sort gate): low polyreactivity

Sequence: QVQLVESGGGLVQAGGSLRLSCAACGFTFWKYAMGWYRQAPGKERELVAAITSGGNTYYADSVKGRFTISRDNAKNTVYLQMNSLKPEDTAVYYCATSGPRGWSLHDYWGQGTQVTVSS
- polyreactivity (PSR sort gate): high polyreactivity

Sequence: QVQLVESGGGLVQAGGSLRLSCAASGSTLFIYAMGWYRQAPGKEREFVAGISYSGGSTYYADSVKGRFTISRDNAKNTVYLQMNSLKPEDTAVYYCAARTFSKPLTYRPYSGLFYYWGQGTQVTVSS
- polyreactivity (PSR sort gate): high polyreactivity

Sequence: QVQLVESGGGLVQAGGSLRLSCAASGSTFSYYAMGWYRQAPGKEWELVAAIRSGGSTYYADSVKGRFTISRDNAKNTVYLQMNSLKPEDTAVYYCNADYIRASTLNYGTIYYWHYDYWGQGTQVTVSS
- polyreactivity (PSR sort gate): high polyreactivity

Sequence: QVQLVESGGGLVQAGGSLRLSSAASGRIFVVNAMGWYRQAPGKERELVAAISKSGARTYYADSVKGRFTISRDNAKNTVYLQMNSLKPEDTAVYYCAAESKGYSQSVFPYDYWGQGTQVTVSS
- polyreactivity (PSR sort gate): high polyreactivity

Sequence: QVQLVESGGGLVQAGGSRRLSCAASGRTFDFYAMGWYRQAPGKERELVAAITGADTSTYYADSVKGRFTISRDNAMNTDYLQMNSLKPEDTAVYYCASDGQWAYTVDPYVIYYRLDYWGQGTQVTVSS
- polyreactivity (PSR sort gate): low polyreactivity

Sequence: QVQLVESGGGLVQAGGSLRLSCAASGRTFDLYAMGWYRQAHGKERELVAAIRWSSGNTYYADSVKGRFTISRDNAKNTVYLQMNSLKPEDTAVYYCNDELVPFRFEYWGQGTQVTVSS
- polyreactivity (PSR sort gate): low polyreactivity

Sequence: QVQLVESGGGLVQAGGSLRLSCAASGRTFYPNAMGWYRQAPRKERELVADITYSGASTYYADSVKGRFTISRDNAKNSVFLQMNSLKPEDTAVYYCNADESGVLVYVPYDYLGQGTQVTVSS
- polyreactivity (PSR sort gate): low polyreactivity

Sequence: QVQLVESGGGLVQAGGSLRLSCAASGFTFEKYAMGWYRQAPGKERELVAAISQSAGSTYADSVKGRFTISRDNAKNTVYLQMNSLKPEDTAVYYFAARYRYPYYARYGYWGQGTQVTVSS
- polyreactivity (PSR sort gate): high polyreactivity

Sequence: QVQLVESGGGLVQAGGSLRLSCAASGSIFGAYAMGWYRQAPGKEWELVAAISWRDGSTYYADSVKGRFTISRDNAKNTVYLQMNCLKPEDTAVYYCAAEYVYIFYDSYYWGQGTQVTVSS
- polyreactivity (PSR sort gate): high polyreactivity

Sequence: QVQLVESGGGLVQAGGSLRLSCAASGSNFRVYAMGWYRQAPGKERELVAAISSSGVRTSYADSVKGRFTISRDIAKNTVYLQMNSLKPEDTSVYYCADRYPYGYYHWGQGTQVTVSS
- polyreactivity (PSR sort gate): high polyreactivity

Sequence: QVQLVESGGGLVQAGGSLRLSCAASGRIFSVYTMGWYRQAPGKERELVAGISRGGSTDYADSVKGRFTISRDNAKNTVYLQMNSLKPEDTAVYYCAATYTYRWYQFNFWGQGTQVTVSS
- polyreactivity (PSR sort gate): high polyreactivity

Sequence: QVQLVESGGGLVQAGGSLRLSCAASGPIFFINAMGSYRQAPGKEREFLATISWSGGSTYYADSVKGRFTISRDNAKNTVYLQMNSLKPEDTAVYYCNAETYGSRWRRQYGYWGQGTQVTVSS
- polyreactivity (PSR sort gate): high polyreactivity

Sequence: QDQLVESGGRLVQAGGSLRLSCAASGRIFSSYALGWYRQAPGKERELVAAIRSSGDRTYYADSVKGRFTISRDNAKITVYLQMNILKPEETAVYFCASRTYLYFGRYDYWGQGTQVTVSS
- polyreactivity (PSR sort gate): high polyreactivity

Sequence: QVQLVESGGGLDQAGGSLRLSCAASGSTYPGNAMGWYRQAPGKERELVAAIDSSTGSTYYADSVKGRFTISRDHAKNTVYLQMNSLKPEDNAVYYCNKTSFLVKLDYWGLGTQVTVSS
- polyreactivity (PSR sort gate): low polyreactivity

Sequence: QVQLVESGGGLVQAGGSLRLSCAASGSTIRGYARGWYRQAPGKEREFVAAITVNGGNTYYAESVKGRFTLSRDNAKNTVYLQMNSLKPEDTEGYYCNVPVTVVKASITEHYYWGQGTQVTVSS
- polyreactivity (PSR sort gate): low polyreactivity

Sequence: QVQLVESVGGLVQAGGSLRLSCAASGSTFPVYVMGWYRQAPGKERELVAAITRIGGSTYYADSVKGRFTISRDNAKNTVYLQMNSLKPEDTAVYYCAAGGTARDDSWGQGTQVTVSS
- polyreactivity (PSR sort gate): low polyreactivity

Sequence: QVQLVESGGGLVQAGGSLRLSCAASGSTFIDYAMGWYRQAPGKERELVAAIDQGGGRTYYADSVKGRFTISRDNAKNTVYLQMNSLKPEDTAVYYCAATSRVVGEGGYEYWGQGTQVTVSS
- polyreactivity (PSR sort gate): low polyreactivity

Sequence: QVQLVESGGGLVQAGGSLRLSCAASGRIFVSNAMGWYRQAPGKERELVACITWTSGSTYYADSVKGRFTISRDNAKNTVYLQMNSLKPEDTAVYYCAAEYWYGNAFDYWGQGTQVTVSS
- polyreactivity (PSR sort gate): low polyreactivity

Sequence: QVQLVESGGGLVQAGGSLRLSCAASGRTFPRYAMGWYRQARGKEREMVAAISGTGGSTYYADSVKGRFTISRDNAKNTFYLQMNSLKPEDTAVYYCAAAFRDGFTRRYGYWGQGTQVTVSS
- polyreactivity (PSR sort gate): high polyreactivity

Sequence: QVQLVESGGGLVQAGGSLRLSCAASGSTFGANSMGWYRQAPGKERELVAAITYSSGSTRYADSVKGRFTISRDNAKTTVYLQMNILKPEDTAVYYCAARRTNYFKLGYWGQGTQVTVSS
- polyreactivity (PSR sort gate): high polyreactivity

Sequence: QVQLVESGGGLVQAGGSLRLSCAASGRTFGKYAMGWYRQAPGKERELVAAISSGGTTYYADSVKGRFTISRDNAKNTVYLQMNSLKPEDTAVYYCAADPRYPYNYWGQGTQVTVSS
- polyreactivity (PSR sort gate): low polyreactivity
